According to a protein production outcome set (Wang et al. 2014):

Assay: label from the status in PepcDB records

| Sequence | protein production |
| --- | --- |
| MSGLDATIINTAIPAIVSDLHGIQYMGWIVACFLLGMSVSVPIWSKLGERMGNKFAFELSLVLFILGSVLEGVAPDIYFFLISRVLMGVGAGGMGSLPYVIVGFIYPNIKRRTVILSYIAASFSAACIAGPLVGGWIVDALSWHWVFYINVPLGLISIILSIAFYRDAHKSKEKVQFDKMGAFTLIAGLTCFLIGIQMLGLASNVMVALFVIVGIILLISFIFIEKKAKSPIVPLSVFLNKALVGDFVLFALAWGAYIAVNTYLPMWSQAILGTSALIGGMTLIPNSILDIAGSQTAPYFLRRFSNYHLLIVDFTLIAITILGLILVPLNTSYWILMLIAAFSGLGVGSIFVILQIKVQIDASEKDMAPATSLSFLIRILAQTIMAAIYGVIMNLALARGIAGHRGITMTMMNKLSDAESAKSLPTAMLPTMRTIFHSGIIEIMCVALFLVVCAYVINFIYNRKEAKKVAE | failed |
| MIRFEIHGENLTITDAIRNYIEEKIGKLERYFNDVPNATAHVKVKTYQNSATKIEVTIPLKKVTLRAEERNDDLYAGIDLINNKLERQVRKYKTRVNRRNRNRGEQEAFASLPEEKEAVEIQNDENEADNEIEIIRAKNFSLKPMDSEEAVLQMDLLGHDFFIFTDRETDGTSIVYKRKDGKYGLIETTELEHHHHHH | failed |
| CVECRKPIGADSKEVHYKNRFWHDTCFRCAKCLHPLANETFVAKDNKILCNKCTTREDSPKCKGCFKAIVAGDQNVEYKGTVWHKDCF | not failed |
| MPSDNTYIRFRQQQRDPLHVNSPVSAGNISGVQGSGSRHPPSPPTPTTQPSVNHSDAQAERLNNLTLDELLDSPGRAGLTRLDPKRPLATLWFDDDSTVAATVRSIFERDFKEPHANWSQTSKATIDRWYETFAQVYNWDRSINKRVRVEFEAKLNSRMSDQVSRWKGNWKEKGDEAKPKWIDPEGIYKHCSGQTSYKARARKRCEKTGETTPDFLELLDETHRKADGTFIDGKSEEIYKKVTSRIEEEESHMCSGDNPESTGSCGLSVHAKNKIFVEVAPRKKGRIYGVGSLQFEAFSAHSGSTLPSDDPVILSQKLAAAEACIQSQAEKINSFDILFDYLADKDPALAAILRRGSSTQTGPASANEAPVATAPEQQVANEETAAATLANLATGSSPSSIF | failed |
| MLTQFLNLLATIISVISLLIVTYGALIAIISFIINELKRVTGAYTPTNIRKLRAVFGTYLLLGLEFLIASDILKTVLEPTMNELIILGGIVVVRTILSVFLNKEIKELETENN | failed |
| MPSSFNVESADGYERLMGRWSRKLAPMLIDFAGLADGDRVLDVGCGTGSLAFTLAETSGLQEIAAVDYSPVFVEAATRRNTDPRVSIRQADACALPFEDDRFDRAMSLLVLHFVPEAGKAVSEMRRVVRPGGVVAAAVWDHYGGMSGMRMMWDTVAMLDEGALPLRRKYCFQPMMRPGEMKESFIAQGLADVEETSLLIRMEYVSFADYWEPIAAGEGPLGKYVAGLDPAKRKAVDAAMRAAYEAGEPDGPRSFAAVAWACRGRVPGQS | failed |
| IKQMLLDWCRAKTRGYEHVDIQNFSSSWSDGMAFCALVHNFFPEAFDYGQLSPQNRRQNFEVAFSSAETHADCPQLLDTEDMVRLREPDWKCVYTYIQEFYRCLVQKGLVKTKKS | not failed |
| SERTELLKPRTLADLIRILHELFAGDEVNVEEVQAVLEAYESNPAEWALYAKFDQYRYTRNLVDQGNGKFNLMILCWGEGHGSSIHDHTDSHCFLKLLQGNLKETLFDWPDKKSNEMIKKSERTLRENQCAYINDSIGLHRVENVSHTEPAVSLHLYSPPFDTCHAFDQRTGHKNKVTMTFHSKFGIRTPFTTSGSLENN | failed |
| MDGRMDATTRMTLSVGALMFRMIWFPAPHWTHAARMTASTFRRYGFGLLSLVLLVLPSRLAAQDYEVPTVTDTYALQNARVVQAPGQVLESATVVVRDGVIDAVGPDAEVPYDARTIEADSLVVYAGFIDGLSHAGVEMPEGEDTDVEDPGNPPPDAAGIQPDRSVRPFLSPDESALQSLRKAGFTLGHVAPEGQMLPGASAHVFYGGETANDMVLEAGPTLFAQLQTADGYVYPATGMAVIAQMRQLYREAERRQQLEAAYERDPTGRPQPPQDPQHSALFSVLDGEQPLAFYADEALSLHRILALHQELDFPLVLAGLGESHELVDALQAVDAPLFLTLDLPEEPTRSTGQDTTTADTTSTPSRYYNPDLQVPSHETVAEEEENLELRHAMERQDYLETAATLHDAGLEFGFTTREADPGDVRGNLRTMIDQGLPEQTALAALTTRPAAQLGLDDRLGTVEAGKIANLVVTDGSYFAEDTKVTHVFVDGRLYDYSADGSDEGEVSGDVSAVLGTWSYTLDTPQGELSGEVTIEGDQSGLDGTFVGPQGDEQPLQSVSFDGTTLSFTVDSPQGGSVSVSVTVEGDTFDGSASTSGGSFPISGERTSGPNATQK | failed |
